B1: 2M8U (parent)
chain: TKAQVIEAFKVFDRDGNGYVTVDYLRKVLNELGDMMPADEIEEMIYEADPQNSGYVQYETFVGMLFL

The variants in the data set derive from B1. Nature of the data set: folding stability dG (cDNA display proteolysis); higher = more stable. Particulars: PBS, room temperature.
Take TKAQVIEAFKVFDRDGNIYVTVDYLRKVLNELGDMMPADEIEEMIYEADPQNSGYVQYETFVGMLFL [G18I]: the “folding stability dG” value is 2.57 kcal/mol.

Take TKAQVIEAFKVFDRDGNRYVTVDYLRKVLNELGDMMPADEIEEMIYEADPQNSGYVQYETFVGMLFL [G18R]: the “folding stability dG” value was determined as 2.06 kcal/mol.

TKAQVIEAFKVFDRDGNFYVTVDYLRKVLNELGDMMPADEIEEMIYEADPQNSGYVQYETFVGMLFL [G18F]: the “folding stability dG” value turned out to be 2.65 kcal/mol.

As to TKAQVIEAFKVFDRDGNMYVTVDYLRKVLNELGDMMPADEIEEMIYEADPQNSGYVQYETFVGMLFL [G18M], the “folding stability dG” value stood at 2.62 kcal/mol.

On to TKAQVIEAFKVFDRDGNEYVTVDYLRKVLNELGDMMPADEIEEMIYEADPQNSGYVQYETFVGMLFL [G18E], for which the “folding stability dG” value was determined as 2.38 kcal/mol.

In the case of TKAQVIEAFKVFDRDGNPYVTVDYLRKVLNELGDMMPADEIEEMIYEADPQNSGYVQYETFVGMLFL [G18P], the “folding stability dG” value turned out to be 2.71 kcal/mol.

Take TKAQVIEAFKVFDRDGNHYVTVDYLRKVLNELGDMMPADEIEEMIYEADPQNSGYVQYETFVGMLFL [G18H]: the “folding stability dG” value was determined as 2.17 kcal/mol.

Consider TKAQVIEAFKVFDRDGNWYVTVDYLRKVLNELGDMMPADEIEEMIYEADPQNSGYVQYETFVGMLFL [G18W], for which the “folding stability dG” value was 2.68 kcal/mol.

For the variant TKAQVIEAFKVFDRDGNLYVTVDYLRKVLNELGDMMPADEIEEMIYEADPQNSGYVQYETFVGMLFL [G18L], the “folding stability dG” value worked out at 2.92 kcal/mol.

Regarding TKAQVIEAFKVFDRDGNSYVTVDYLRKVLNELGDMMPADEIEEMIYEADPQNSGYVQYETFVGMLFL [G18S], the “folding stability dG” value worked out at 2.42 kcal/mol.

For TKAQVIEAFKVFDRDGNCYVTVDYLRKVLNELGDMMPADEIEEMIYEADPQNSGYVQYETFVGMLFL [G18C], the “folding stability dG” value was 2.87 kcal/mol.

For TKAQVIEAFKVFDRDGNTYVTVDYLRKVLNELGDMMPADEIEEMIYEADPQNSGYVQYETFVGMLFL [G18T], the “folding stability dG” value was 2.38 kcal/mol.

Regarding TKAQVIEAFKVFDRDGNNYVTVDYLRKVLNELGDMMPADEIEEMIYEADPQNSGYVQYETFVGMLFL [G18N], the “folding stability dG” value came out at 2.23 kcal/mol.

For TKAQVIEAFKVFDRDGNDYVTVDYLRKVLNELGDMMPADEIEEMIYEADPQNSGYVQYETFVGMLFL [G18D], the “folding stability dG” value stood at 2.28 kcal/mol.

On to TKAQVIEAFKVFDRDGNQYVTVDYLRKVLNELGDMMPADEIEEMIYEADPQNSGYVQYETFVGMLFL [G18Q], for which the “folding stability dG” value amounted to 2.3 kcal/mol.

As for TKAQVIEAFKVFDRDGNKYVTVDYLRKVLNELGDMMPADEIEEMIYEADPQNSGYVQYETFVGMLFL [G18K], the “folding stability dG” value turned out to be 2.53 kcal/mol.

With TKAQVIEAFKVFDRDGNGYVTDDYLRKVLNELGDMMPADEIEEMIYEADPQNSGYVQYETFVGMLFL [V22D], the “folding stability dG” value turned out to be 1.76 kcal/mol.

TKAQVIEAFKVFDRDGNGYVTCDYLRKVLNELGDMMPADEIEEMIYEADPQNSGYVQYETFVGMLFL [V22C]: the “folding stability dG” value came out at 2.88 kcal/mol.

TKAQVIEAFKVFDRDGNGYVTFDYLRKVLNELGDMMPADEIEEMIYEADPQNSGYVQYETFVGMLFL [V22F]: the “folding stability dG” value was found to be 2.52 kcal/mol.

For TKAQVIEAFKVFDRDGNGYVTEDYLRKVLNELGDMMPADEIEEMIYEADPQNSGYVQYETFVGMLFL [V22E], the “folding stability dG” value came out at 2.47 kcal/mol.

In the case of TKAQVIEAFKVFDRDGNGYVTADYLRKVLNELGDMMPADEIEEMIYEADPQNSGYVQYETFVGMLFL [V22A], the “folding stability dG” value was 2.95 kcal/mol.

On to TKAQVIEAFKVFDRDGNGGVTVDYLRKVLNELGDMMPADEIEEMIYEADPQNSGYVQYETFVGMLFL [Y19G], for which the “folding stability dG” value came out at 1.95 kcal/mol.

Consider TKAQVIEAFKVFDRDGNGVVTVDYLRKVLNELGDMMPADEIEEMIYEADPQNSGYVQYETFVGMLFL [Y19V], for which the “folding stability dG” value was determined as 3.05 kcal/mol.

Take TKAQVIEAFKVFDRDGNGSVTVDYLRKVLNELGDMMPADEIEEMIYEADPQNSGYVQYETFVGMLFL [Y19S]: the “folding stability dG” value is 2.9 kcal/mol.

For TKAQVIEAFKVFDRDGNGFVTVDYLRKVLNELGDMMPADEIEEMIYEADPQNSGYVQYETFVGMLFL [Y19F], the “folding stability dG” value is 3.66 kcal/mol.

With TKAQVIEAFKVFDRDGNGEVTVDYLRKVLNELGDMMPADEIEEMIYEADPQNSGYVQYETFVGMLFL [Y19E], the “folding stability dG” value came to 2.63 kcal/mol.

Regarding TKAQVIEAFKVFDRDGNGAVTVDYLRKVLNELGDMMPADEIEEMIYEADPQNSGYVQYETFVGMLFL [Y19A], the “folding stability dG” value was determined as 2.7 kcal/mol.

Turning to TKAQVIEAFKVFDRDGNGQVTVDYLRKVLNELGDMMPADEIEEMIYEADPQNSGYVQYETFVGMLFL [Y19Q], the “folding stability dG” value came out at 2.91 kcal/mol.

For the variant TKAQVIEAFKVFDRDGNGRVTVDYLRKVLNELGDMMPADEIEEMIYEADPQNSGYVQYETFVGMLFL [Y19R], the “folding stability dG” value is 2.76 kcal/mol.

Turning to TKAQVIEAFKVFDRDGNGKVTVDYLRKVLNELGDMMPADEIEEMIYEADPQNSGYVQYETFVGMLFL [Y19K], the “folding stability dG” value came to 3.07 kcal/mol.

Regarding TKAQVIEAFKVFDRDGNGIVTVDYLRKVLNELGDMMPADEIEEMIYEADPQNSGYVQYETFVGMLFL [Y19I], the “folding stability dG” value worked out at 3.21 kcal/mol.

For TKAQVIEAFKVFDRDGNGPVTVDYLRKVLNELGDMMPADEIEEMIYEADPQNSGYVQYETFVGMLFL [Y19P], the “folding stability dG” value was 1.9 kcal/mol.

As for TKAQVIEAFKVFDRDGNGDVTVDYLRKVLNELGDMMPADEIEEMIYEADPQNSGYVQYETFVGMLFL [Y19D], the “folding stability dG” value was 2.21 kcal/mol.

For the variant TKAQVIEAFKVFDRDGNGWVTVDYLRKVLNELGDMMPADEIEEMIYEADPQNSGYVQYETFVGMLFL [Y19W], the “folding stability dG” value stood at 3.21 kcal/mol.

Take TKAQVIEAFKVFDRDGNGLVTVDYLRKVLNELGDMMPADEIEEMIYEADPQNSGYVQYETFVGMLFL [Y19L]: the “folding stability dG” value was found to be 3.26 kcal/mol.

Regarding TKAQVIEAFKVFDRDGNGTVTVDYLRKVLNELGDMMPADEIEEMIYEADPQNSGYVQYETFVGMLFL [Y19T], the “folding stability dG” value was 3.29 kcal/mol.

For TKAQVIEAFKVFDRDGNGCVTVDYLRKVLNELGDMMPADEIEEMIYEADPQNSGYVQYETFVGMLFL [Y19C], the “folding stability dG” value was 2.74 kcal/mol.

With TKAQVIEAFKVFDRDGNGMVTVDYLRKVLNELGDMMPADEIEEMIYEADPQNSGYVQYETFVGMLFL [Y19M], the “folding stability dG” value is 3.3 kcal/mol.

Regarding TKAQVIEAFKVFDRDGNGNVTVDYLRKVLNELGDMMPADEIEEMIYEADPQNSGYVQYETFVGMLFL [Y19N], the “folding stability dG” value came to 2.75 kcal/mol.

With TKAQVIEAFKVFDRDGNGHVTVDYLRKVLNELGDMMPADEIEEMIYEADPQNSGYVQYETFVGMLFL [Y19H], the “folding stability dG” value was 2.94 kcal/mol.

The values above are taken from the MegaScale stability set (Tsuboyama et al. 2023).
